Data taken from US5807729A, “Metalloprotease having increased activity” (Novo Nordisk A/S, priority 1995, dated 1998).

Key:
FTC-labeled casein = assay: Thermal stability profile, FTC-casein hydrolysis; type: biochemical; conditions: 15 minutes at various temperatures, Universal buffer pH 7; FIG. 9
Experimental: Purified p45 metalloprotease or B.t. thermolysin (Boehringer Mannheim) (50 microliters, 0.1 mg/ml) are incubated at various temperatures for 15-minutes in Universal buffer, pH 7. Ten microliters of sample are then added to 30 microliters of Universal pH buffer (pH 7) and 20 microliters of FTC-labeled casein and are incubated at 37° C. for 1 hour. 150 microliters of 5% TCA is added to acidify and precipitate casein (1 hour at room temperature). […] Samples are then analyzed on the fluorimeter (slit width=2.5 nm; excitation freq.=490 nm; emission freq.=525 nm; integration time=2 sec).

[1] = system: succinyl-Ala-Ala-Ala-p-nitroanilide; assay: Hydrolysis of succinyl-Ala-Ala-Ala-p-nitroanilide; type: biochemical
Text: Both p45 metalloprotease and a neutral zinc endopeptidase secreted by Flavobacterium meningosepticum poorly hydrolyze the substrate N-[3-(2--furyl)acryloyl]-Leu-Gly-NH2. However, the neutral zinc endopeptidase secreted by Flavobacterium meningosepticum will hydrolyze the vertebrate elastase substrate succinyl-Ala-Ala-Ala-p-nitroanilide, a substrate that thermolysin cannot hydrolyze (Table 2). Therefore, succinyl-Ala-Ala-Ala-p-nitroanilide hydrolysis by the p45 metalloprotease is investigated. […] This effect further differentiates the p45 metalloprotease from other existing metalloproteases.

B1: p45 Metalloprotease: metalloprotease purified from Fusarium oxysporum DSM 2672 broth, 45 kDa band; also produced recombinantly in A. oryzae (protein)
chain: MRFSDSLLLIGLSSLAGAHPSRRAPNPSPLSKRGLDLEAFKLPPMAEYVPQDEVPDDVSAKVVTKRADYTETAKDLVKSTFPKATFRMVTDHYVGSNGIAHVNFKQTVNGIDIDNADFNVNIGADGEVFSYGNSFYEGKIPGPLTKRDEKDPVDALKDTVDVLSLPVEADKAKAEKKSKNHYTFTGTKGTVSKPEAKLTYLVDENKELKLTWRVETDIVDNWLLTYVNAAKTDEVVGVVDYVNEATYKVYPWGVNDPSKGSRSTVENPWNLAASEFTWLSDGSNNYTTTRGNNGIAQVNPSGGSTYLNNYRPDSPSLKFEYDYSTSTTTPTTYRDASIAQLFYTANKYHDLLYLLGFTEQAGNFQTNNNGQGGVGNDMVILNAQDGSGTNNANFATPADGQPGRMRMYLWTYSTPQRDCSFDAGVVIHEYTHGLSNRLTGGPANSGCLPGGESGGMGEGWGDFMATAIHIQSKDTRASNKVMGDWVYNNAAGIRAYPYSTSLTTNPYTYKSVNSLSGVHAIGTYWATVLYEVMWNLIDKHGKNDADEPKFNNGVPTDGKYLAMKLVVDGMSLQPCNPNMVQARDAIIDADTALTKGANKCEIWKGFAKRGLGTGAKYSASSRTESFALPSGC
FTC-labeled casein
  optimum temperature for hydrolysis of FTC-casein: 50 °C
[1]
  Specific Activity, substrate Ala-Ala-Ala-pNA: < 2 pmol pNA/min*mg
[1]; substrate 4.4 mM in 0.1M Tris, pH 8
  hydrolysis of succinyl-Ala-Ala-Ala-p-nitroanilide: neither, the p45 metalloprotease nor the B.s. thermolysin would hydrolyze
